Laboratory results: patent WO2007054120A1 (dated 2007)
Residue numbers refer to the chain shown, from its start. One block for each binder: values may come before it.

Legend:
[1] = biological target: T1, recombinant fibronectin domain ED-B (His)6 (human, UniProt P02751 1266-1356); assay: SPR (BIAcore), ED-B on chip, Fab in flow
T1 construct: domain: ED-B; Biotinylated ED-B was used only in pannings; also called rekombinantes ED-B; human ED-B

[2] = biological target: T1, recombinant fibronectin domain ED-B …; assay: SPR (BIAcore), about 100 RU ED-B on chip, Fab in flow
[3] = biological target: T1, recombinant fibronectin domain ED-B …; assay: SPR (BIAcore), ED-B on chip, Fab monomer in flow

Kd [2]: ~0.7 nM
B3: MOR03245 (Fab, V domains shown)
VH: QVQLQESGPGLVKPGETLSLTCTVSGGSISSYYWSWIRQAPGKGLEWIGVIHKWGFTNYNPSLKSRVTISVDTSKNQFSLKLSSVTAADTAVYYCARFFDVWGQGTLVTVSS
VL: DIVLTQPPSVSGAPGQRVTISCSGSSSNIGSNTVRWYQQLPGTAPKLLIYSNNKRPSGVPDRFSGSKSGTSASLAITGLQSEDEADYYCWTGMSYHFVFGGGTKLTVLG

Kd [2]: 0.6 nM
B4: MOR03246 (Fab, V domains shown)
VH: QVQLVQSGAEVKKPGASVKVSCKASGYTFTGFYINWVRQAPGQGLEWMGWINPYSGNTRYAQKFQGRVTMTRDTSISTAYMELSSLRSEDTAVYYCARSPVYYKYDYWGQGTLVTVSS
VL: DIVLTQPPSVSGAPGQRVTISCSGSSSNIGSNTVRWYQQLPGTAPKLLIYSNNKRPSGVPDRFSGSKSGTSASLAITGLQSEDEADYYCQSWDPRSFTVFGGGTKLTVL

Kd [2]: 0.03 nM
B5: MOR03255 (Fab, V domains shown)
VH: QVQLVESGGGLVQPGGSLRLSCAASGFTFSSYGMHWVRQAPGKGLEWVSVISNRSSYIYYADSVKGRFTISRDNSKNTLYLQMNSLRAEDTAVYYCARNKVGFDVWGQGTLVTVSS
VL: DIALTQPASVSGSPGQSITISCTGTSSDGGGYNTVSWYQQHPGKAPKLMIYYVHKRPSGVSNRFSGSKSGNTASLTISGLQAEDEADYYCQSWDLSVHQVVFGGGTKLTVLG

Kd [2]: 0.04 nM
B6: MOR03258 (Fab, V domains shown)
VH: B5 VH with R54Q, S56N
VL: DIALTQPASVSGSPGQSITISCTGTSSDGGGYNTVSWYQQHPGKAPKLMIYYVHKRPSGVSNRFSGSKSGNTASLTISGLQAEDEADYYCQSWDLLAPSVVFGGGTKLTVL

Second part, the binder before the results:

B1: MOR03075 (Fab, V domains shown)
VH: QVQLQESGPGLVKPGETLSLTCTVSGGSISSYYWSWIRQAPGKGLEWIGIGHWGSTQYNPSLKGRVTISVDTSKNQFSLKLSSVTAEDTAVYYCARFFDVWGQGTLVTVSS
VL: DIVLTQPPSVSGAPGQRVTISCSGSSSNIGSNTVRWYQQLPGTAPKLLIYSNNKRPSGVPDRFSGSKSGTSASLAITGLQSEDEADYYCQSWDPRSFTVFGGGTKLTVLG
Kd [1]: 2.4 nM

B2: MOR03243 (Fab, V domains shown)
VH: B3 VH with V50E, K53R, W54G, F56Y, N58Q
VL: DIVLTQPPSVSGAPGQRVTISCSGSSSNIGSNTVRWYQQLPGTAPKLLIYSNNKRPSGVPDRFSGSKSGTSASLAITGLQSEDEADYYCQAWTRAHRYPVFGGGTKLTVLG
Kd [2]: ~0.7 nM

B7: MOR03062 (Fab, V domains shown)
VH: B5 VH with N53S, R54S, S55G
VL: B5 VL
fold affinity enhancement against MOR02715 [1]: 15 fold | Kd [3]: 2.4 nM
